The series addresses SpCas9::KQ (nuclease-deficient) KQ insertion (Streptococcus pyogenes) (UniProt Q99ZW2). Nature of the series: cell_activity. The following applies: PAM TGG; half the fraction of GFP-positive cells of SpCas9.
Sequence of UniProt Q99ZW2 (Q99ZW2 whole entry): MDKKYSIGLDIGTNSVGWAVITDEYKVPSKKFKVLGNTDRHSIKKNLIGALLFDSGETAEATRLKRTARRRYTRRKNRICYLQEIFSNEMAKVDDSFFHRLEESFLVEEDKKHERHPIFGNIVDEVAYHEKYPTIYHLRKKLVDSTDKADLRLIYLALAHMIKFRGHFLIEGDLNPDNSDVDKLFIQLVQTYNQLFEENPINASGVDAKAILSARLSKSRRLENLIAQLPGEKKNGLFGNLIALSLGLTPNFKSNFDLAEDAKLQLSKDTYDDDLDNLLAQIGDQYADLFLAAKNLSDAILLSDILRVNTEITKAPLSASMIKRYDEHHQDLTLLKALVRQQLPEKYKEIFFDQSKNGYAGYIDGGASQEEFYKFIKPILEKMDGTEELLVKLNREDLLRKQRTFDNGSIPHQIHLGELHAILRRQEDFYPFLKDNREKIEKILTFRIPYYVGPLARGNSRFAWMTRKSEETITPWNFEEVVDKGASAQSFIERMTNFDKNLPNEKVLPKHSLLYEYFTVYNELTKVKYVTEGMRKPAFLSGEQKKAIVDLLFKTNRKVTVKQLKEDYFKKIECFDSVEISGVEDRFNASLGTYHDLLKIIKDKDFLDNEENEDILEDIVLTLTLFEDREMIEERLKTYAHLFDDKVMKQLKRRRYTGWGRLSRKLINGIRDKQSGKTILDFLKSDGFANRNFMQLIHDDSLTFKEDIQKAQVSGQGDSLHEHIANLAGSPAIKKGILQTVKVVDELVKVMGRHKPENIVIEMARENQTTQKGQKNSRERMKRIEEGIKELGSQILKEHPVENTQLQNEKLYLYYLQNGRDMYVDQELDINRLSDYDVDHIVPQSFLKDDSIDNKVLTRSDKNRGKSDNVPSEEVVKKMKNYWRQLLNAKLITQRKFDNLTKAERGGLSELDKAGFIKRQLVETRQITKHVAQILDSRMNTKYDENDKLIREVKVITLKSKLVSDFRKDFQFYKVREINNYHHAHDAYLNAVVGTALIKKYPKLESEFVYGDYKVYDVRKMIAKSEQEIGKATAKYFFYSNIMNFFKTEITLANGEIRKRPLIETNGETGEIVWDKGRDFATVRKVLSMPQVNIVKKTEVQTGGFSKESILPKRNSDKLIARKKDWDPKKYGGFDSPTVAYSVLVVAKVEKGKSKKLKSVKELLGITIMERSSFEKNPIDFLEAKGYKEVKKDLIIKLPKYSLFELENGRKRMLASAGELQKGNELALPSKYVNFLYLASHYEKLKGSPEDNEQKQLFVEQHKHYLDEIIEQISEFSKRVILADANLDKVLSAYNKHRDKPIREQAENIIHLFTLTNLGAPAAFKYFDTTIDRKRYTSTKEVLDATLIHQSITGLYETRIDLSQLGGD

In turn, “CGAAAGGUUUUGCACUCGAC / CGAAAGGTTTTGCACTCGACTGG / CCAGTCGAGTGCAAAACCTTTCG” gave a binding signal (fraction of SpCas9 GFP-positive cells) of 0.5.

The values above are taken from US20190218532.
